This note sets out measurements from article PMC5330652 (Journal of the American Chemical Society, 2017).

This series deals with the molecule itself. Nature of the series: negative-stain TEM + dynamic light scattering.

B1: cowpea chlorotic mottle virus (CCMV) capsid protein (natural protein)
chain: MSTVGTGKLTRAQRRAAARKNKRNTRVVQPVIVEPIASGQGKAIKAWTGYSVSKWTASCAAAEAKVTSAITISLPNELSSERNKQLKVGRVLLWLGLLPSVSGTVKSCVTETQTTAAASFQVALAVADNSKDVVAAMYPEAFKGITLEQLTADLTIYLYSSAALTEGDVIVHLEVEHVRPTFDDSFTPVY
In the case of B1, the “stoichiometry N” value stood at 60.

The term stoichiometry N denotes the number of molecules, sites or subunits per partner or assembly.
